Assay results published in patent US7981423B2, “Rage fusion proteins” (Transtech Pharma, Inc., priority 2004, dated 2011).

Assays:
amyloid-beta (Abeta) = biological target: T1, amyloid-beta (Abeta) (Homo sapiens, UniProt P05067); test: In vitro ligand binding ELISA, immobilized amyloid-beta; conditions: various dilutions of fusion protein; FIG. 7
T1 construct: Amyloid Beta (1-40) from Biosource; purchased Biosource
Method: For example, the RAGE fusion protein may be used in a binding assay to identify potential RAGE ligands. In one example embodiment of such a binding assay, a known RAGE ligand may coated onto a solid substrate (e.g., Maxisorb plates) at a concentration of about 5 micrograms per well, where each well contains a total volume of about 100 microliters (μL). The plates may be incubated at 4° C. overnight to allow the ligand to absorb. Alternatively, shorter incubation periods at higher temperature (e.g., room temperature) may be used. […] The fusion protein bound to the immobilized ligand may be detected in a variety of ways. […] The bound complex may be detected by adding the alkaline phosphatase substrate, para-nitrophenylphosphate (PNPP), and measuring conversion of PNPP to para-nitrophenol (PNP) as an increase in absorbance at 405 nm. […] Binding was detected by the addition of an immunodetection complex containing a monoclonal mouse anti-human IgG1 diluted 1:11,000 to a final assay concentration (FAC) of 21 ng/100 μL, a biotinylated goat anti-mouse IgG diluted 1:500, to a FAC of […], and an avidin-linked alkaline phosphatase. […] Binding of the complex to the immobilized fusion protein was quantified by measuring conversion of PNPP to para-nitrophenol (PNP) which was-measured spectrophotornetrically at 405 nm. […]

Zucker diabetic rats = test: Diabetic rat model of restenosis (balloon injury of left common carotid artery); type: in vivo
Method: In these experiments, balloon injury of left common carotid artery was performed in Zucker diabetic and nondiabetic rats using standard procedure. […] A maintenance dose was delivered every other day until day 7 after injury (i.e., at day 1, 3, 5 and 7 after injury). The maintenance dose was high=1 mg/animal for one group, or low=0.3 mg/animal for the second group. To measure vascular smooth muscle cell (VSMC) proliferation, animals were sacrificed at 4 days and 21 days after injury.
For the measurement of cell proliferation, 4 day animals received intraperitoneal injection of bromodeoxyuridine (BrDdU) 50 mg/kg at 18, 12, and 2 hours before euthanasia. After sacrifice, the entire left and right carotid arteries were harvested. Specimens were stored in Histochoice for at least 24 hours before embedding. Assessment of VSMC proliferation was performed using mouse anti-BrdU monoclonal antibody. A fluorescence labeled goat anti-mouse secondary antibody was applied. The number of BrdU-positive nuclei per section were counted by two observers blinded to the treatment regimens.
The remaining rats were sacrificed at 21 days for morphometric analysis. Morphometric analyses were performed by an observer blinded to the study groups, using computerized digital microscopic planimetry software Image-Pro Plus on serial sections, ([…]) carotid arteries stained by Van Gieson staining. All data were expressed as mean±SD. Statistical analysis was performed with use of SPSS software. Continuous variables were compared using unpaired t tests. A values of P≦0.05 was considered to be statistically significant.

[1] = High dose 1.0 mg/animal qod × 4, loading dose 3 mg/animal, IP, 21 days, mean±SD
[2] = Low dose 0.3 mg/animal qod × 4, loading dose 3 mg/animal, IP, 21 days, mean±SD

T1 sequence (P05067 672-711 limits assumed): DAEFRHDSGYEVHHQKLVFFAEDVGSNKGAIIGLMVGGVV

B1: TTP-4000: four domain RAGE fusion protein (SEQ ID NO: 32): human RAGE amino acids 1-251 linked to CH2 and CH3 domains of human IgG (protein)
chain: MAAGTAVGAWALVLSLWGAVVGAQNITARIGEPLVLKCKGAPKKPPQRLEWKLNTGRTEAWKVLSPQGGGPWDSVARVLPNGSLFLPAVGIQDEGIFRCQAMNRNGKETKSNYRVRVYQIPGKPEIVDSASELTAGVPNKVGTCVSEGSYPAGTLSWHLDGKPLVPNEKGVSVKEQTRRHPETGLFTLQSELMVTPARGGDPRPTFSCSFSPGLPRHRALRTAPIQPRVWEPVPLEEVQLVVEPEGGAVAPPSVFLFPPKPKDTLMISRTPEVTCVVVDVSHEDPEVKFNWYVDGVEVHNAKTKPREEQYNSTYRVVSVLTVLHQDWLNGKEYKCKVSNKALPAPIEKTISKAKGQPREPQVYTLPPSRDELTKNQVSLTCLVKGFYPSDIAVEWESNGQPENNYKTTPPVLDSDGSFFLYSKLTVDKSRWQQGNVFSCSVMHEALHNHYTQKSLSLSPGK
In the case of B1, the “binding to immobilized amyloid-beta (absorbance at 405 nm)” value (amyloid-beta (Abeta)) is reported as “specifically interact”, the “vascular smooth muscle cell proliferation (BrdU proliferating cells, in words)” value (Zucker diabetic rats; 4 days after injury, dose-responsive, FIG. 13B) is reported as “significantly reduced” and the Luminal area (Zucker diabetic rats; [1]) is reported as 0.16 ± 0.02 mm^2. It also gave a Medial area (Zucker diabetic rats; [1]) of 0.11 ± 0.01 mm^2, an I/M ratio (Zucker diabetic rats; [2]) of 1.61 ± 0.26 and a Luminal area (Zucker diabetic rats; [2]) of 0.18 ± 0.04 mm^2. The Medial area (Zucker diabetic rats; [2]) was 0.11 ± 0.02 mm^2 and the “intima/media ratio (in words)” value (Zucker diabetic rats; dose-responsive, FIG. 13A) was “significantly reduced”.
